Read-outs that look alike come from different tables or passages of the source.

The target of series [1] is recombinant human sRAGE (Homo sapiens, UniProt Q15109). The series can be described thus: Fluorescence polarization competition assay: displacement of fluorescent amyloid beta (1-40) from sRAGE. The following applies: read-out: EC50 for competing with fluoresceinated amyloid beta (1-40) for binding to sRAGE, unlabeled ligand, sRAGE 40 nM, fluorescent amyloid beta (1-40) 50 nM, 37° C. 1 hour, FIG. 4, mean of four measurements. On the procedure: (§1) Once dissolved, the peptide is diluted with phosphate-buffered saline (calcium-free) to a concentration of 1 mg/ml and allowed to incubate at 37° C. for 24-48 hours.
Chain of recombinant human sRAGE (Homo sapiens, UniProt Q15109) (Q15109 23-339): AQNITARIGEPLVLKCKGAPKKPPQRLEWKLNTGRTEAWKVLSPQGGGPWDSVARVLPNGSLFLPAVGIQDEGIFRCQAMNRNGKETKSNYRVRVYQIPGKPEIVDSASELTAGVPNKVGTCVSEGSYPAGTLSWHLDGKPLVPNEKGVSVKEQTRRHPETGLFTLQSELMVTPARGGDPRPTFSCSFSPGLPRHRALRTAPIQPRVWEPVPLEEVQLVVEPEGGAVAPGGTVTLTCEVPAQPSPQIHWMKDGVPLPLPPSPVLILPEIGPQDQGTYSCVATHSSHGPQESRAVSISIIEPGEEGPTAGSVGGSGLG
The complex was incubated at 37° C. for 1 hour and then the milli-polarization (mP) value was read using an Envision plate reader (Perkin Ekmer). In some cases, depending on the purity of the human sRAGE, 0.1% bovine serum albumin (BSA) or 0.05% of the detergent TWEEN 20 may be added to the phospahte buffered saline to reduce background binding of the sRAGE to the assay well.
On the technique in general: In fluorescence polarisation assays a small probe gives low polarisation when free and higher when bound to something large.

Series [2] has as its target T1, recombinant human sRAGE (human, UniProt Q15109 23-339).
T1 construct: also called soluble RAGE
The series can be described thus: fluorescence polarization, displacement of fluorescent amyloid beta (1-40) from sRAGE. On the procedure: as §1
The complex was incubated at 37° C. for 1 hour and then the milli-polarization (mP) value was read using an Envision plate reader (Perkin Ekmer).

T1 sequence (Q15109 23-339 limits assumed): as the sequence (Q15109 23-339) above

As to “s100b: unlabeled S100b, calgranulin-like RAGE ligand”, the results for the EC50 in series [1] and in series [1] (listed as S100b) were ~0.043 µM and 0.043 µM, respectively.

B1: unlabeled S100b (ligand)
chain: MSELEKAMVALIDVFHQYSGREGDKHKLKKSELKELINNELSHFLEEIKEQEVVDKVMETLDNDGDGECDFQEFMAFVAMVTTACHEFFEHE
On to B1, for which the EC50 in series [2] was 0.043 µM.

The values above are taken from patent US20070154954A1, “Fluorescence polarization assay” (TRANSTECH PHARMA, INC., priority 2004, published 2007).
